Results on 1 molecule are retold here after patent US5576295A, “Agent for suppressing the motor activity of gastrointestinal tracts” (Nisshin Flour Milling Co., Ltd., priority 1993, dated 1996).

The test system of data set [1] is motor activity of gastrointestinal tracts. The data set is described as follows: Motor activity of gastrointestinal tracts in the post-feed period in dogs sutured with strain gauge transducers. In kind it is in vivo. The protocol:
An experiment was performed as described below in order to examine the action of glicentin on a motility of gastrointestinal tracts.
Six hybrid dogs weighing 16-18 kg were sutured with strain gauge transducers (manufactured by Star Medical, F121S) at a site of the gastric antrum 4 cm from the pyloric ring, a site of the duodenum for the main incurrent pancreatic duct and a site of the jejunum 10 cm from the Treitz's ligamentum, respectively, to measure the contractile force intensity of the circular muscle. Recovery period for the suture was 2 weeks.
Three of the 6 dogs were intravenously given over 1 hour 15 ml of a physiological saline solution in which 400 pmol of glicentin had been dissolved per kg of bodyweight. The remaining three received an aqueous physiological solution containing no glicentin in the same way as above as a control for comparison. The dogs were fed on 15 g of a solid diet (SD®, manufactured by Oriental Yeast K.K.) and 15 g of Vitaone® (manufactured by Nihon Pet Food K.K. and Kyodo Shiryo K.K.) per kg of bodyweight simultaneously with the intravenous administration.
Then, the motor activity of gastrointestinal tracts and length of the post-feed period were measured. Intensity of the contraction in the post-feed period was integrated for the two-hour measurements and evaluated in comparison with the mean level of the signal peak in phase 3 motor activity of the gastrointestinal tracts in hunger and taken as a motor index.

The subject of the next data set is male BALB/c mice. The data set is described as follows: Intraperitoneal administration to mice, observation of appearance. The following applies: 10 mg/kg intraperitoneally, male BALB/c mice (6 weeks age). The format is in vivo.
The mark [2] stands for this setting: 400 pmol/kg i.v. over 1 hour, post-feed contraction integrated over two hours relative to phase 3 peak in hunger, average ± standard error.
Where [3] appears, read: 400 pmol/kg i.v. over 1 hour, versus control.

B1: Glicentin: One of enteroglucagons, a peptide comprising 69 amino acid residues; human glicentin (SEQ ID NO: 1) prepared by genetic engineering (protein)
chain: RSLQDTEEKSRSFSASQADPLSDPDQMNEDKRHSQGTFTSDYSKYLDSRRAQDFVQWLMNTKRNRNNIA
For the molecule B1, the “Length of post-feed period” value in data set [1] (400 pmol/kg glicentin intravenously over 1 hour, fed simultaneously, average ± standard error) is 13.6 ± 1.0 h. In data set [1] (setting [2]), the “Motor index, duodenum” value came out at 0.675 ± 0.4; the “Motor index, gastric antrum” value turned out to be 0.878 ± 0.1; the “Motor index, jejunum” value turned out to be 1.087 ± 0.2. In data set [1] (setting [3]), the “Influence upon the length of the post-feed period (in words)” value was “no influence upon the length of the post-feed period” and the “Post-feed motility in the vestibulum of stomach (in words)” value is listed as “inhibited the post-feed motility in the vestibulum of stomach”. For the same molecule, in the data set on male BALB/c mice, the Change in appearance entry is reported as “no change in appearance is observed”.
